Data published in paper doi:10.1101/2023.08.10.552882.

Target: human 26S proteasome (human) (UniProt O00487)
Test: single-molecule TIRF microscopy

Sequence of UniProt O00487 (O00487 whole entry, looked up): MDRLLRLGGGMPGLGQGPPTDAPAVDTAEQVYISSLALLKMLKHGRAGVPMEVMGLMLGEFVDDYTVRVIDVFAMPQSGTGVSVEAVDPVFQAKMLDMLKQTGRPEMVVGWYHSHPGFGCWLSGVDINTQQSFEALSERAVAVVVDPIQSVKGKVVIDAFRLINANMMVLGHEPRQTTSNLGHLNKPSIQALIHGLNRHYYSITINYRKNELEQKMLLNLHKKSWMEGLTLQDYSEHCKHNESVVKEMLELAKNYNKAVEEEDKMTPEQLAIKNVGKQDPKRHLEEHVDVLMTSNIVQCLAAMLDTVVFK

Substance | half-life of the proteasome-substrate complex | puncta density relative to pK48-polyUb-GFP
pK48-polyUb-GFP (from UniProt P0CG48) | 0.73 s | –
K48-polyUb-GFP (from UniProt P0CG48) | 2.82 s | 5 fold
